In paper PMC2191679 one finds relative efficiency of peptide-binding to Kb (parent OVA257-264 = 1) and relative efficiency of peptide-binding to Kb (parent OVA55-62 = 1) data, which are given here for 7 molecules.

B1: OVA257-264/P1S->K (peptide)
peptide: KIINFEKL
B2: OVA257-264/P4N->R (peptide)
peptide: SIIRFEKL
B3: OVA55-62/P1K->S (peptide)
peptide: SVVRFDKL
B4: OVA55-62/P6D->E (peptide)
peptide: KVVRFEKL
B5: OVA55-62/P3V->I (peptide)
peptide: KVIRFDKL
B6: OVA257-264/P3I->V (peptide)
peptide: SIVNFEKL
B7: OVA55-62/P4R->N (peptide)
peptide: KVVNFDKL

The assay concerns the target H-2Kb on the surface of RMA-S cells (mouse (endogenous in RMA-S)). The assay can be described thus: stabilisation of Kb on RMA-S cells.
For B1, the relative efficiency of peptide-binding to Kb (parent OVA257-264 = 1) was determined as 1.

As for B2, the relative efficiency of peptide-binding to Kb (parent OVA257-264 = 1) came to 1.

Take B3: the relative efficiency of peptide-binding to Kb (parent OVA55-62 = 1) was determined as 2. With B4, the relative efficiency of peptide-binding to Kb (parent OVA55-62 = 1) was 10. On to B5, for which the relative efficiency of peptide-binding to Kb (parent OVA55-62 = 1) came out at 1. Turning to B6, the relative efficiency of peptide-binding to Kb (parent OVA257-264 = 1) is 1. On to B7, for which the relative efficiency of peptide-binding to Kb (parent OVA55-62 = 1) is 2.
